Assay results from patent CN106117360A.

Biological target: CD3 on Jurkat cells
Experiment: flow cytometry, culture supernatant on Jurkat cells (negative control sdAb)

MFI: 115 MFI
Substance: NC-sdAb(相同形式的非相关性sdAb) (VHH)
